Measured values as given in article PMC9482650, “Quantitative fragmentomics allow affinity mapping of interactomes” (Nature Communications, 2022).

T1: ARHGAP21, Q5T5U3
T1 sequence (Q5T5U3 45-169, limits assumed, looked up): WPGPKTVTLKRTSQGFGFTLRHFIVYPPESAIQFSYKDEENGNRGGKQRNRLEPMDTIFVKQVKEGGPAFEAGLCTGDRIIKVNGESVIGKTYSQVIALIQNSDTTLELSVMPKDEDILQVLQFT

T2: HTRA3, P83110
T2 sequence (P83110 354-453, limits assumed, looked up): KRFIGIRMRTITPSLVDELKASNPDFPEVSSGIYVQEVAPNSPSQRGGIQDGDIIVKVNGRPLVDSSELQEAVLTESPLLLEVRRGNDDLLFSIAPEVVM

T3: GRIP1_3, Q9Y3R0
T3 sequence (Q9Y3R0 247-346, limits assumed, looked up): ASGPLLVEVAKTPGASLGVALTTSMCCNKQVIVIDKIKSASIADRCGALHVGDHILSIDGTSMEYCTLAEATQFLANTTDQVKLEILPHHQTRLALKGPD

T4: NHERF3_3, Q5T2W1
T4 sequence (Q5T2W1 238-333, limits assumed, looked up): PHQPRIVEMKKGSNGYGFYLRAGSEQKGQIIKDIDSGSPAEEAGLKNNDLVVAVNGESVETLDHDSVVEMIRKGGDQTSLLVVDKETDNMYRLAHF

T5: APBA2_2, Q99767
T5 sequence (Q99767 654-744, limits assumed, looked up): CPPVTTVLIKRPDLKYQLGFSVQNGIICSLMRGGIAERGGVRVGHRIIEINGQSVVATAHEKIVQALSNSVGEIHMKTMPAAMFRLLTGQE

T6: FRMPD1, Q5SYB0
T6 sequence (Q5SYB0 52-145, limits assumed, looked up): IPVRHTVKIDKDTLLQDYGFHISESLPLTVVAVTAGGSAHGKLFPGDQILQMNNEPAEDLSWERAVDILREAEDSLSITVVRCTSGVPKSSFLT

T7: TJP3_3, O95049
T7 sequence (O95049 375-456, limits assumed, looked up): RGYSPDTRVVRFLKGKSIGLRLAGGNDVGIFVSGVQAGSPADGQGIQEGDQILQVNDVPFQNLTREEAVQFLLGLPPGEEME

T8: PDZD7_3, Q9H5P4
T8 sequence (Q9H5P4 857-944, limits assumed, looked up): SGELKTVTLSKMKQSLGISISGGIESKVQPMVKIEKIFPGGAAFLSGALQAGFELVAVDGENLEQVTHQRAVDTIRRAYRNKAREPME

T9: LRRC7, Q96NW7
T9 sequence (Q96NW7 1440-1537, limits assumed, looked up): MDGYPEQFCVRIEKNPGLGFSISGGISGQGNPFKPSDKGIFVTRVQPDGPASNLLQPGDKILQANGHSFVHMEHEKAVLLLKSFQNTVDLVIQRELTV

T10: APBA2_1, Q99767
T10 sequence (Q99767 563-664, limits assumed, looked up): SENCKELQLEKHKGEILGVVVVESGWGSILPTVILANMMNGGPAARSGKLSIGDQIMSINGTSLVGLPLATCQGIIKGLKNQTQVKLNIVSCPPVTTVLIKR

T11: PDZD2_2, O15018
T11 sequence (O15018 329-429, limits assumed, looked up): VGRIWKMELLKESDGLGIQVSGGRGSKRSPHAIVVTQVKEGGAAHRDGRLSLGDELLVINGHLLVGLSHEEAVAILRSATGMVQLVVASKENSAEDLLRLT

T12: LNX2_3, Q8N448
T12 sequence (Q8N448 463-564, limits assumed, looked up): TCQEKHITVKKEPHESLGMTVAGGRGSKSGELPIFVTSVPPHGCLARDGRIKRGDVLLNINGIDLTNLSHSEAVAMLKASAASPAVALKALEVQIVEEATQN

T13: NHERF3_4, Q5T2W1
T13 sequence (Q5T2W1 373-468, limits assumed, looked up): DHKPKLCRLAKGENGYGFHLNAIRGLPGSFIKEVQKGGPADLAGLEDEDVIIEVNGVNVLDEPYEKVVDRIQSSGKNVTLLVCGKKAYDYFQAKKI

B1: DUSP5, Q16690 (peptide)
chain: RSPVATATSC
B2: GAS2L2, Q8NHY3 (peptide)
chain: PLPPEEESWV

Target: T1, ARHGAP21, Q5T5U3
Assay: holdup assay
Parameters: key: below the threshold = too weak to quantify, mostly under pKd 3.1 to 4
Details: plain residues with an end cap or a label only (N-terminal biotin on a linker: ado-ado)

| pKd | Binder |
| --- | --- |
| below the threshold | B1 |
| 4.15 | B2 |

Target: MAST1, Q9Y2H9
Assay: holdup assay
Parameters: key: below the threshold = too weak to quantify, mostly under pKd 3.1 to 4
Details: plain residues with an end cap or a label only (N-terminal biotin on a linker: ado-ado)

MAST1, Q9Y2H9, sequence (Q9Y2H9 962-1065): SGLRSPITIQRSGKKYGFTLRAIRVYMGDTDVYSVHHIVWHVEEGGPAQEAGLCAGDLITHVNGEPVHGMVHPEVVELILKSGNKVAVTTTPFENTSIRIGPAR

| pKd | Binder |
| --- | --- |
| 3.81 | B1 |
| below the threshold | B2 |

Target: T2, HTRA3, P83110
Assay: holdup assay
Parameters: key: below the threshold = too weak to quantify, mostly under pKd 3.1 to 4
Details: plain residues with an end cap or a label only (N-terminal biotin on a linker: ado-ado)

| pKd | Binder |
| --- | --- |
| 3.89 | B1 |
| 5.59 | B2 |

Target: Inadl_3, Q8NI35
Assay: holdup assay
Parameters: key: below the threshold = too weak to quantify, mostly under pKd 3.1 to 4
Details: plain residues with an end cap or a label only (N-terminal biotin on a linker: ado-ado)

Inadl_3, Q8NI35, sequence (Q8NI35 359-469): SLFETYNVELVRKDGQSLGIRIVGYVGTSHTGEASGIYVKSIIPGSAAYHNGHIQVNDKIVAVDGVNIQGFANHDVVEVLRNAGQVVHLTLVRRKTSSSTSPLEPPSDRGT

| pKd | Binder |
| --- | --- |
| below the threshold | B1 |
| 3.78 | B2 |

Target: T3, GRIP1_3, Q9Y3R0
Assay: holdup assay
Parameters: key: below the threshold = too weak to quantify, mostly under pKd 3.1 to 4
Details: plain residues with an end cap or a label only (N-terminal biotin on a linker: ado-ado)

| pKd | Binder |
| --- | --- |
| below the threshold | B1 |
| below the threshold | B2 |

Target: IL16_3, Q14005
Assay: holdup assay
Parameters: key: below the threshold = too weak to quantify, mostly under pKd 3.1 to 4
Details: plain residues with an end cap or a label only (N-terminal biotin on a linker: ado-ado)

IL16_3, Q14005, sequence (Q14005 1107-1207): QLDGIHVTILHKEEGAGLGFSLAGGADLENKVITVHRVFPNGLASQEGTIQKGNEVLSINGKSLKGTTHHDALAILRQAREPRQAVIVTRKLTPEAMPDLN

| pKd | Binder |
| --- | --- |
| below the threshold | B1 |
| below the threshold | B2 |

Target: TJP1_3, Q07157
Assay: holdup assay
Parameters: key: below the threshold = too weak to quantify, mostly under pKd 3.1 to 4
Details: plain residues with an end cap or a label only (N-terminal biotin on a linker: ado-ado)

TJP1_3, Q07157, sequence (Q07157 416-512): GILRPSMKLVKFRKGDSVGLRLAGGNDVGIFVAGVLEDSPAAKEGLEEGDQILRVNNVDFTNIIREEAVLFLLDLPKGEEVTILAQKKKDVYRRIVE

| pKd | Binder |
| --- | --- |
| below the threshold | B1 |
| 3.63 | B2 |

Target: DLG1_1, Q12959
Assay: holdup assay
Parameters: key: below the threshold = too weak to quantify, mostly under pKd 3.1 to 4
Details: plain residues with an end cap or a label only (N-terminal biotin on a linker: ado-ado)

| pKd | Binder |
| --- | --- |
| below the threshold | B1 |
| 4.25 | B2 |

Target: GRIP2_7, Q9C0E4
Assay: holdup assay
Parameters: key: below the threshold = too weak to quantify, mostly under pKd 3.1 to 4
Details: plain residues with an end cap or a label only (N-terminal biotin on a linker: ado-ado)

GRIP2_7, Q9C0E4, sequence (Q9C0E4 934-1023): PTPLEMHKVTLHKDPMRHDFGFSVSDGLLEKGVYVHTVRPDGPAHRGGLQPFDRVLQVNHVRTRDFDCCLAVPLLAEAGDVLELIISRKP

| pKd | Binder |
| --- | --- |
| below the threshold | B1 |
| 4.09 | B2 |

Target: T4, NHERF3_3, Q5T2W1
Assay: holdup assay
Parameters: key: below the threshold = too weak to quantify, mostly under pKd 3.1 to 4
Details: plain residues with an end cap or a label only (N-terminal biotin on a linker: ado-ado)

| pKd | Binder |
| --- | --- |
| below the threshold | B1 |
| below the threshold | B2 |

Target: T5, APBA2_2, Q99767
Assay: holdup assay
Parameters: key: below the threshold = too weak to quantify, mostly under pKd 3.1 to 4
Details: plain residues with an end cap or a label only (N-terminal biotin on a linker: ado-ado)

| pKd | Binder |
| --- | --- |
| below the threshold | B1 |
| below the threshold | B2 |

Target: GOPC, Q9HD26
Assay: holdup assay
Parameters: key: below the threshold = too weak to quantify, mostly under pKd 3.1 to 4
Details: plain residues with an end cap or a label only (N-terminal biotin on a linker: ado-ado)

| pKd | Binder |
| --- | --- |
| below the threshold | B1 |
| below the threshold | B2 |

Target: Inadl_5, Q8NI35
Assay: holdup assay
Parameters: key: below the threshold = too weak to quantify, mostly under pKd 3.1 to 4
Details: plain residues with an end cap or a label only (N-terminal biotin on a linker: ado-ado)

Inadl_5, Q8NI35, sequence (Q8NI35 673-780): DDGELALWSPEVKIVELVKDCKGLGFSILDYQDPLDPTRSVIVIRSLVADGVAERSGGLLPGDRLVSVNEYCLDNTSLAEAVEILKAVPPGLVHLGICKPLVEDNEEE

| pKd | Binder |
| --- | --- |
| below the threshold | B1 |
| 4.29 | B2 |

Target: T6, FRMPD1, Q5SYB0
Assay: holdup assay
Parameters: key: below the threshold = too weak to quantify, mostly under pKd 3.1 to 4
Details: plain residues with an end cap or a label only (N-terminal biotin on a linker: ado-ado)

| pKd | Binder |
| --- | --- |
| below the threshold | B1 |
| below the threshold | B2 |

Target: T7, TJP3_3, O95049
Assay: holdup assay
Parameters: key: below the threshold = too weak to quantify, mostly under pKd 3.1 to 4
Details: plain residues with an end cap or a label only (N-terminal biotin on a linker: ado-ado)

| pKd | Binder |
| --- | --- |
| below the threshold | B1 |
| 4.98 | B2 |

Target: T8, PDZD7_3, Q9H5P4
Assay: holdup assay
Parameters: key: below the threshold = too weak to quantify, mostly under pKd 3.1 to 4
Details: plain residues with an end cap or a label only (N-terminal biotin on a linker: ado-ado)

| pKd | Binder |
| --- | --- |
| 3.72 | B1 |
| 4.32 | B2 |

Target: LNX1_1, Q8TBB1
Assay: holdup assay
Parameters: key: below the threshold = too weak to quantify, mostly under pKd 3.1 to 4
Details: plain residues with an end cap or a label only (N-terminal biotin on a linker: ado-ado)

LNX1_1, Q8TBB1, sequence (Q8TBB1 261-371): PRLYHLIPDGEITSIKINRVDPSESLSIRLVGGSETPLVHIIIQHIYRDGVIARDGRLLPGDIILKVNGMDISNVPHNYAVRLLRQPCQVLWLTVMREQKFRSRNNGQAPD

| pKd | Binder |
| --- | --- |
| below the threshold | B1 |
| below the threshold | B2 |

Target: FRMPD3, Q5JV73
Assay: holdup assay
Parameters: key: below the threshold = too weak to quantify, mostly under pKd 3.1 to 4
Details: plain residues with an end cap or a label only (N-terminal biotin on a linker: ado-ado)

FRMPD3, Q5JV73, sequence (Q5JV73 12-100): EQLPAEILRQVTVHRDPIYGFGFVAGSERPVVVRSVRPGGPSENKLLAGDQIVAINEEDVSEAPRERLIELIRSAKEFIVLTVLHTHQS

| pKd | Binder |
| --- | --- |
| below the threshold | B1 |
| 3.72 | B2 |

Target: T9, LRRC7, Q96NW7
Assay: holdup assay
Parameters: key: below the threshold = too weak to quantify, mostly under pKd 3.1 to 4
Details: plain residues with an end cap or a label only (N-terminal biotin on a linker: ado-ado)

| pKd | Binder |
| --- | --- |
| below the threshold | B1 |
| 4.96 | B2 |

Target: T10, APBA2_1, Q99767
Assay: holdup assay
Parameters: key: below the threshold = too weak to quantify, mostly under pKd 3.1 to 4
Details: plain residues with an end cap or a label only (N-terminal biotin on a linker: ado-ado)

| pKd | Binder |
| --- | --- |
| below the threshold | B1 |
| below the threshold | B2 |

Target: T11, PDZD2_2, O15018
Assay: holdup assay
Parameters: key: below the threshold = too weak to quantify, mostly under pKd 3.1 to 4
Details: plain residues with an end cap or a label only (N-terminal biotin on a linker: ado-ado)

| pKd | Binder |
| --- | --- |
| below the threshold | B1 |
| 6.13 | B2 |

Target: Inadl_9, Q8NI35
Assay: holdup assay
Parameters: key: below the threshold = too weak to quantify, mostly under pKd 3.1 to 4
Details: plain residues with an end cap or a label only (N-terminal biotin on a linker: ado-ado)

Inadl_9, Q8NI35, sequence (Q8NI35 1530-1615): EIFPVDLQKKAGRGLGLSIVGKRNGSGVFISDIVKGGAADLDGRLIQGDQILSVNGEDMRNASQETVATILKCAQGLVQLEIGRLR

| pKd | Binder |
| --- | --- |
| below the threshold | B1 |
| 4.34 | B2 |

Target: T12, LNX2_3, Q8N448
Assay: holdup assay
Parameters: key: below the threshold = too weak to quantify, mostly under pKd 3.1 to 4
Details: plain residues with an end cap or a label only (N-terminal biotin on a linker: ado-ado)

| pKd | Binder |
| --- | --- |
| below the threshold | B1 |
| below the threshold | B2 |

Target: T13, NHERF3_4, Q5T2W1
Assay: holdup assay
Parameters: key: below the threshold = too weak to quantify, mostly under pKd 3.1 to 4
Details: plain residues with an end cap or a label only (N-terminal biotin on a linker: ado-ado)

| pKd | Binder |
| --- | --- |
| below the threshold | B1 |
| below the threshold | B2 |

Target: DLG2_3, Q15700
Assay: holdup assay
Parameters: key: below the threshold = too weak to quantify, mostly under pKd 3.1 to 4
Details: plain residues with an end cap or a label only (N-terminal biotin on a linker: ado-ado)

| pKd | Binder |
| --- | --- |
| 3.7 | B1 |
| 3.86 | B2 |
